These results are taken from patent US20250282881A1 (SHANGHAI EPIMAB BIOTHERAPEUTICS, published 2025).

Assay [1] deals with T1, recombinant human PD-L1/His fusion protein (Novoprotein, Cat. No. C315) (human, UniProt Q9NZQ7 19-239).
T1 construct: also called recombinant human PD-L1-his protein
Kind of assay: BLI (Octet RED96), antibody on AHC sensor, PD-L1/His as analyte, test group 1. From the text: Based on titer and purity, 10 of the 50 humanized antibodies were selected and further assayed in two groups for dissociation rate constant (koff) as shown in Table 7. Chimeric antibody EM0005-86c having VH/VL sequences identical to EM0005-mAb86 (as provided in Table 6) was used as a positive control in each group and served as a basis for normalization. Briefly, antibodies were characterized for affinities and binding kinetics by Octet® RED96 biolayer interferometry (Pall FortéBio LLC). Anti-hIgG Fc Capture (AHC) Biosensors (Pall) with antibody captured at a concentration of 100 nM for 120 seconds were dipped into running buffer (1× pH 7.2 PBS, 0.05% Tween 20, 0.1% BSA) for 60 seconds to check the baseline, then dipped into a single concentration of recombinant human PD-L1/His fusion protein (Novoprotein, Cat. No. C315) to measure binding for 200 seconds, followed by dipped into running buffer to measure dissociation for 600 seconds. The association and dissociation curves were fitted to a 1:1 Langmuir binding model using FortéBio Data Analysis software (Pall). The off-rate ratios shown in Table 7 were calculated by off-rate of a humanized antibody to that of EM0005-86c in the same test group. The off-rate ratio serves as a normalized index, so that the humanized antibodies can be compared to one another across test groups. The lower off-rate ratio indicates higher affinity of an antibody for human PD-L1. HuEM0005-86-21 was selected for further investigation based on the purity and off-rate data.
A general note: Biolayer interferometry detects binding as a change in optical thickness at a sensor tip.

For assay [2], the target named is T2, recombinant human OX40/His fusion protein (Novoprotein, CB17) (human, UniProt P43489 29-216).
T2 construct: Bought protein
T2 sequence: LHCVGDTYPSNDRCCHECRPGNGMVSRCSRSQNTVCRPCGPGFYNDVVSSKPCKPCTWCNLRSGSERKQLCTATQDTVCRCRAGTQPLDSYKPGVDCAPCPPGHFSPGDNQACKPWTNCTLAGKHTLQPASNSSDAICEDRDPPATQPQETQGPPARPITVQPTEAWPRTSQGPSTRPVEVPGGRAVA
Kind of assay: BLI (Octet RED96), antibody on AHC sensor, OX40/His as analyte, test group 3. The procedure: (§1) All 17 antibodies in Table 4 were expressed by transient transfection of HEK293 cell, purified by Protein A chromatography, and assayed for and ranked by dissociation rate constant (koff). Briefly, antibodies binding affinities and kinetics were characterized by Octet® RED96 biolayer interferometry (Pall FortéBio LLC). Antibodies were captured by Anti-hIgG Fc Capture (AHC) Biosensors (Pall) at a concentration of 100 nM for 120 seconds. After that, sensors were dipped into running buffer (1× pH 7.2 PBS, 0.05% Tween 20, 0.1% BSA) for 60 seconds to check the baseline, then dipped into recombinant human OX40/His fusion protein (Novoprotein, CB17) at assigned concentration for 200 seconds to measure binding, followed by dipped into running buffer for 600 seconds for dissociation. The assay was conducted in four test groups (as listed in Table 5) all containing the EM1007-044c chimeric antibody as the basis for normalization. The association and dissociation curves were fitted to a 1:1 Langmuir binding model using ForteBio Data Analysis software (Pall) to obtain the off-rate constants as shown in Table 5 below. The off-rate of each antibody was compared to that of the EM1007-mAb044c chimeric antibody in the same test group obtained in parallel to produce the corresponding off-rate ratio, serving as a normalized index. […]

The target of assay [3] is T2, recombinant human OX40/His fusion …. Kind of assay: BLI (Octet RED96), antibody on AHC sensor, OX40/His as analyte, test group 4. The procedure: as §1
The target is the same in assay [4]. Kind of assay: BLI (Octet RED96), antibody on AHC sensor, OX40/His as analyte, test group 1. The protocol:
as §1

By koff is commonly meant the rate constant with which the complex falls apart.

T1 sequence (Q9NZQ7 19-239 limits assumed): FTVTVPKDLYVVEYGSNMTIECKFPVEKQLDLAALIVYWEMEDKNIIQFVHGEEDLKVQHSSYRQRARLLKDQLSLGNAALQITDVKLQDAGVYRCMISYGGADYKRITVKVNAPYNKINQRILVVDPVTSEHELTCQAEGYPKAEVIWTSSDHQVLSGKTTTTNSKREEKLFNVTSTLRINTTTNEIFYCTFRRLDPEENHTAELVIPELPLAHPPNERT

B1: HuEM0005-86-21 (antibody, human IgG1, kappa, L234A L235A, V domains shown)
VH: QVQLVQSGSELKKPGASVKVSCKASGYTFTTYGINWVRQAPGQGLEWMGYIYIGNAYTEYNEKFKGRFVFSLDTSVSTAYLQICSLKAEDTAVYYCARDLMVIAPKTMDYWGQGTTVTVSS
VL: DIQMTQSPSSVSASVGDRVTITCKASQDVGTAVAWYQQKPGKAPKLLIYWASTRHTGVPSRFSGSGSGTDFTLTISSLQPEDFATYYCQQYSSYPYTFGGGTKVEIKR
notes: Humanized anti-PD-L1
For the molecule B1, in assay [1], the “Off-Rate Ratio to EM0005-86c” value was 88% and the koff came out at 0.000239 s⁻¹.

B2: EM1007-mAb044c-13 (antibody, human IgG1, kappa, L234A L235A, V domains shown)
VH: EVQLVQSGAEVKKPGSSVKVSCKASGGTFSSSWMNWVRQAPGQGLEWMGRIYPGDEITNYNGKFKDRVTITADKSTSTAYMELSSLRSEDTAVYYCARDLLMPYWGQGTLVTVSS
VL: DIVMTQTAFSNPVTLGTSASISCRSSKSLLYSNGITYLYWYLQKPGQSPHLLIYQMSNLAPGVPDRFSSSGSGTDFTLRISRVEAEDVGIYYCAQNLELPFTFGSGTKLEIKR
Regarding B2, in assay [2], the “Normalized Index (off-rate ratio to EM1007-mAb044c)” value was 427% and the koff was found to be 0.0013 s⁻¹.

B3: EM1007-mAb044c-15 (antibody, human IgG1, kappa, L234A L235A, V domains shown)
VH: EVQLVQSGAEVKKPGSSVKVSCKASGGTFSSSWMNWVRQRPGKGLEWMGRIYPGDEITNYNAKFKDRVTITADKSTSTAYMELSSLRSEDTAVYYCARDLLMPYWGQGTLVTVSS
VL: DIVMTQTAFSNPVTLGTSASISCRSSKSLLYSNAITYLYWYLQKPGQSPHLLIYQMSNLAPGVPDRFSSSGSGTDFTLRISRVEAEDVGIYYCAQNLELPFTFGSGTKLEIKR
For the molecule B3, in assay [3], the “Normalized Index (off-rate ratio to EM1007-mAb044c)” value was 340% and the koff was 0.000949 s⁻¹.

B4: EM1007-mAb044c-17 (antibody, human IgG1, kappa, L234A L235A, V domains shown)
VH: EVQLQQSGAEVKKPGSSVKVSCKASGHAFSSSWMNWVKQRPGKGLEWIGRIYPGDEITNYNAKFKDKATLTADKSTSTAYMELSSLRSEDTAVYYCARDLLMPYWGQGTLVTVSS
VL: DIVMTQTAFSNPVTLGTSASISCRSSKSLLYSNAITYLYWYLQKPGQSPHLLIYQMSNLAPGVPDRFSSSGSGTDFTLRISRVEAEDVGIYYCAQNLELPFTFGSGTKLEIKR
Take B4: in assay [3], the “Normalized Index (off-rate ratio to EM1007-mAb044c)” value was 92% and the koff stood at 0.000256 s⁻¹.

B5: HuEM1007-044-1 (antibody, human IgG1, kappa, L234A L235A, V domains shown)
VH: EVQLVQSGAEVKKPGSSVKVSCKASGGTFSSSWMNWVRQAPGQGLEWMGRIYPGDEITNYNGKFKDRVTITADKSTSTAYMELSSLRSEDTAVYYCARDLLMPYWGQGTLVTVSS
VL: DIVMTQTPLSLPVTPGEPASISCRSSKSLLYSNGITYLYWYLQKPGQSPQLLIYQMSNLAPGVPDRFSGSGSGTDFTLKISRVEAEDVGVYYCAQNLELPFTFGQGTKLEIKR
notes: Humanized anti-OX40, human IgG1 LALA / kappa
Turning to B5, in assay [4], the “Normalized Index (off-rate ratio to EM1007-mAb044c)” value was found to be 306% and the koff was 0.00103 s⁻¹.

B6: HuEM1007-044-2 (antibody, human IgG1, kappa, L234A L235A, V domains shown)
VH: EVQLVQSGAEVKKPGSSVKVSCKASGHTFSSSWMNWVRQAPGQGLEWMGRIYPGDEITNYNGKFKDRVTITADKSTSTAYMELSSLRSEDTAVYYCARDLLMPYWGQGTLVTVSS
VL: DIVMTQTPLSLPVTPGEPASISCRSSKSLLYSNGITYLYWYLQKPGQSPQLLIYQMSNLAPGVPDRFSGSGSGTDFTLKISRVEAEDVGVYYCAQNLELPFTFGQGTKLEIKR
notes: as for B5
As for B6, in assay [4], the “Normalized Index (off-rate ratio to EM1007-mAb044c)” value is 281% and the koff worked out at 0.000944 s⁻¹.

B7: HuEM1007-044-3 (antibody, human IgG1, kappa, L234A L235A, V domains shown)
VH: EVQLVQSGAEVKKPGSSVKVSCKASGHTFSSSWMNWVRQAPGQGLEWIGRIYPGDEITNYNGKFKDRVTLTADKSTSTAYMELSSLRSEDTAVYYCARDLLMPYWGQGTLVTVSS
VL: DIVMTQTPLSLPVTPGEPASISCRSSKSLLYSNGITYLYWYLQKPGQSPQLLIYQMSNLAPGVPDRFSGSGSGTDFTLKISRVEAEDVGVYYCAQNLELPFTFGQGTKLEIKR
notes: as for B5
On to B7, for which, in assay [4], the “Normalized Index (off-rate ratio to EM1007-mAb044c)” value came out at 255% and the koff was found to be 0.000859 s⁻¹.

B8: HuEM1007-044-14 (antibody, human IgG1, kappa, L234A L235A, V domains shown)
VH: EVQLVQSGAEVKKPGSSVKVSCKASGGTFSSSWMNWVRQRPGKGLEWMGRIYPGDEITNYNAKFKDRVTITADKSTSTAYMELSSLRSEDTAVYYCARDLLMPYWGQGTLVTVSS
VL: DIVMTQTPLSLPVTPGEPASISCRSSKSLLYSNAITYLYWYLQKPGQSPQLLIYQMSNLAPGVPDRFSSSGSGTDFTLKISRVEAEDVGVYYCAQNLELPFTFGQGTKLEIKR
notes: as for B5
Turning to B8, in assay [3], the “Normalized Index (off-rate ratio to EM1007-mAb044c)” value came to 341% and the koff stood at 0.000952 s⁻¹.

B9: HuEM1007-044-4 (antibody, human IgG1, kappa, L234A L235A, V domains shown)
VH: EVQLVQSGAEVKKPGSSVKVSCKASGHTFSSSWMNWVKQAPGKGLEWIGRIYPGDEITNYNGKFKDKVTLTADKSTSTAYMELSSLRSEDTAVYYCARDLLMPYWGQGTLVTVSS
VL: DIVMTQTPLSLPVTPGEPASISCRSSKSLLYSNGITYLYWYLQKPGQSPQLLIYQMSNLAPGVPDRFSGSGSGTDFTLKISRVEAEDVGVYYCAQNLELPFTFGQGTKLEIKR
notes: as for B5
In the case of B9, in assay [2], the “Normalized Index (off-rate ratio to EM1007-mAb044c)” value worked out at 486% and the off-rate constant (koff) was 0.00148 s⁻¹.

B10: HuEM1007-044-5 (antibody, human IgG1, kappa, L234A L235A, V domains shown)
VH: EVQLVQSGAEVKKPGSSVKVSCKASGGTFSSSWMNWVRQAPGQGLEWMGRIYPGDEITNYNGKFKDRVTITADKSTSTAYMELSSLRSEDTAVYYCARDLLMPYWGQGTLVTVSS
VL: DIVMTQTPLSLPVTPGEPASISCRSSKSLLYSNGITYLYWYLQKPGQSPQLLIYQMSNLAPGVPDRFSSSGSGTDFTLKISRVEAEDVGVYYCAQNLELPFTFGQGTKLEIKR
notes: as for B5
Consider B10, for which, in assay [4], the “Normalized Index (off-rate ratio to EM1007-mAb044c)” value is 243% and the koff is 0.000818 s⁻¹.

B11: EM0005-86c-1 (antibody, V domains shown)
VH: QVQLQQSGAELVRPGSSVKMSCKTSGYTFTTYGINWVKQRPGQGLEWIGYIYIGNAYTEYNEKFKGKATLTSDPSSRTAYMQLSSLTSEDSAIYFCARDLMVIAPKTMDYWGQGTSVTVSS
VL: DIQMNQSHKFMSTSVGDRVSITCKASQDVGTAVAWYQQKPGQSPKLLIYWASTRHTGVPDRFTGGGSGTDFTLTISNVQSEDLADYFCQQYSSYPYTFGGGTKLEMK
notes: Chimeric variant of EM0005-86c
Take B11: in assay [1], the “Off-Rate Ratio to EM0005-86c” value was 69% and the koff worked out at 0.000188 s⁻¹.
